According to patent US20200283478A1 (Genentech, published 2020):
Several values for one entry are separate records, joined by “and”; a condition that tells them apart may be missing. Equal values may be shown once. Numbered stars: 1 amine (or outer) side, 2 acyl side, 3 side chain; on linkers, the order of the positions; unused ones are H or OH. Bridge positions count the residues as written; N and C are the ends. Square brackets hold non-standard residues; d marks the D form. NH(CH2)9CO = O=C(CCCCCCCCCN[*:1])[*:2]; NH(CH2)8CO = O=C(CCCCCCCCN[*:1])[*:2]; Cit = NC(=O)NCCC[C@H](N)C(=O)O; Aun = NCCCCCCCCCCC(=O)O; Aoc = NCCCCCCCC(=O)O; Ava = NCCCCC(=O)O

B1: Compound 29 (Ac-SG-CFIPWNLQRIGLLC-NH2) (peptide)
peptide: Ac-SGCFIPWNLQRIGLLC-NH2
modifications: disulfide 3-16
SMILES: CC[C@H](C)[C@@H]1NC(=O)[C@H](CCCNC(=N)N)NC(=O)[C@H](CCC(N)=O)NC(=O)[C@H](CC(C)C)NC(=O)[C@H](CC(N)=O)NC(=O)[C@H](Cc2c[nH]c3ccccc23)NC(=O)[C@@H]2CCCN2C(=O)[C@H]([C@@H](C)CC)NC(=O)[C@H](Cc2ccccc2)NC(=O)[C@@H](NC(=O)CNC(=O)[C@H](CO)NC(C)=O)CSSC[C@@H](C(N)=O)NC(=O)[C@H](CC(C)C)NC(=O)[C@H](CC(C)C)NC(=O)CNC1=O
B2: Compound 85 (Ac-CRLPWNLQR-(Ano)-C-NH2) (peptide)
peptide: Ac-CRLPWNLQR[NH(CH2)8CO]C-NH2
modifications: disulfide 1-11
SMILES: CC(=O)N[C@H]1CSSC[C@@H](C(N)=O)NC(=O)CCCCCCCCNC(=O)[C@H](CCCNC(=N)N)NC(=O)[C@H](CCC(N)=O)NC(=O)[C@H](CC(C)C)NC(=O)[C@H](CC(N)=O)NC(=O)[C@H](Cc2c[nH]c3ccccc23)NC(=O)[C@@H]2CCCN2C(=O)[C@H](CC(C)C)NC(=O)[C@H](CCCNC(=N)N)NC1=O
B3: Compound 32 (Ac-CRLPWNLQRIGLPC-NH2) (peptide)
peptide: Ac-CRLPWNLQRIGLPC-NH2
modifications: disulfide 1-14
SMILES: CC[C@H](C)[C@@H]1NC(=O)[C@H](CCCNC(=N)N)NC(=O)[C@H](CCC(N)=O)NC(=O)[C@H](CC(C)C)NC(=O)[C@H](CC(N)=O)NC(=O)[C@H](Cc2c[nH]c3ccccc23)NC(=O)[C@@H]2CCCN2C(=O)[C@H](CC(C)C)NC(=O)[C@H](CCCNC(=N)N)NC(=O)[C@@H](NC(C)=O)CSSC[C@@H](C(N)=O)NC(=O)[C@@H]2CCCN2C(=O)[C@H](CC(C)C)NC(=O)CNC1=O
B4: Compound 105 (Ac-CRLPWnLQRIGLPC-NH2) (peptide)
peptide: Ac-CRLPW[dN]LQRIGLPC-NH2
modifications: disulfide 1-14
SMILES: CC[C@H](C)[C@@H]1NC(=O)[C@H](CCCNC(=N)N)NC(=O)[C@H](CCC(N)=O)NC(=O)[C@H](CC(C)C)NC(=O)[C@@H](CC(N)=O)NC(=O)[C@H](Cc2c[nH]c3ccccc23)NC(=O)[C@@H]2CCCN2C(=O)[C@H](CC(C)C)NC(=O)[C@H](CCCNC(=N)N)NC(=O)[C@@H](NC(C)=O)CSSC[C@@H](C(N)=O)NC(=O)[C@@H]2CCCN2C(=O)[C@H](CC(C)C)NC(=O)CNC1=O
B5: Compound 83 (Ac-CRLPWNLQR-(Aun)-C-NH2) (peptide)
peptide: Ac-CRLPWNLQR[Aun]C-NH2
modifications: disulfide 1-11
SMILES: CC(=O)N[C@H]1CSSC[C@@H](C(N)=O)NC(=O)CCCCCCCCCCNC(=O)[C@H](CCCNC(=N)N)NC(=O)[C@H](CCC(N)=O)NC(=O)[C@H](CC(C)C)NC(=O)[C@H](CC(N)=O)NC(=O)[C@H](Cc2c[nH]c3ccccc23)NC(=O)[C@@H]2CCCN2C(=O)[C@H](CC(C)C)NC(=O)[C@H](CCCNC(=N)N)NC1=O
B6: Compound 31 (Ac-CFIPWNLQRIGLLC-NH2) (peptide)
peptide: Ac-CFIPWNLQRIGLLC-NH2
modifications: disulfide 1-14
SMILES: CC[C@H](C)[C@@H]1NC(=O)[C@H](CCCNC(=N)N)NC(=O)[C@H](CCC(N)=O)NC(=O)[C@H](CC(C)C)NC(=O)[C@H](CC(N)=O)NC(=O)[C@H](Cc2c[nH]c3ccccc23)NC(=O)[C@@H]2CCCN2C(=O)[C@H]([C@@H](C)CC)NC(=O)[C@H](Cc2ccccc2)NC(=O)[C@@H](NC(C)=O)CSSC[C@@H](C(N)=O)NC(=O)[C@H](CC(C)C)NC(=O)[C@H](CC(C)C)NC(=O)CNC1=O
B7: Compound 84 (Ac-CRLPWNLQR-(Ade)-C-NH2) (peptide)
peptide: Ac-CRLPWNLQR[NH(CH2)9CO]C-NH2
modifications: disulfide 1-11
SMILES: CC(=O)N[C@H]1CSSC[C@@H](C(N)=O)NC(=O)CCCCCCCCCNC(=O)[C@H](CCCNC(=N)N)NC(=O)[C@H](CCC(N)=O)NC(=O)[C@H](CC(C)C)NC(=O)[C@H](CC(N)=O)NC(=O)[C@H](Cc2c[nH]c3ccccc23)NC(=O)[C@@H]2CCCN2C(=O)[C@H](CC(C)C)NC(=O)[C@H](CCCNC(=N)N)NC1=O
B8: Compound 22 (Ac-GSG-CWNLKRIGSQGC-NH2) (peptide)
peptide: Ac-GSGCWNLKRIGSQGC-NH2
modifications: disulfide 4-15
SMILES: CC[C@H](C)[C@@H]1NC(=O)[C@H](CCCNC(=N)N)NC(=O)[C@H](CCCCN)NC(=O)[C@H](CC(C)C)NC(=O)[C@H](CC(N)=O)NC(=O)[C@H](Cc2c[nH]c3ccccc23)NC(=O)[C@@H](NC(=O)CNC(=O)[C@H](CO)NC(=O)CNC(C)=O)CSSC[C@@H](C(N)=O)NC(=O)CNC(=O)[C@H](CCC(N)=O)NC(=O)[C@H](CO)NC(=O)CNC1=O
B9: Compound 104 (Ac-CRLPWNlQRIGLPC-NH2) (peptide)
peptide: Ac-CRLPWN[dL]QRIGLPC-NH2
modifications: disulfide 1-14
SMILES: CC[C@H](C)[C@@H]1NC(=O)[C@H](CCCNC(=N)N)NC(=O)[C@H](CCC(N)=O)NC(=O)[C@@H](CC(C)C)NC(=O)[C@H](CC(N)=O)NC(=O)[C@H](Cc2c[nH]c3ccccc23)NC(=O)[C@@H]2CCCN2C(=O)[C@H](CC(C)C)NC(=O)[C@H](CCCNC(=N)N)NC(=O)[C@@H](NC(C)=O)CSSC[C@@H](C(N)=O)NC(=O)[C@@H]2CCCN2C(=O)[C@H](CC(C)C)NC(=O)CNC1=O
B10: Compound 86 (Ac-CRLPWNLQR-(Aoc)-C-NH2) (peptide)
peptide: Ac-CRLPWNLQR[Aoc]C-NH2
modifications: disulfide 1-11
SMILES: CC(=O)N[C@H]1CSSC[C@@H](C(N)=O)NC(=O)CCCCCCCNC(=O)[C@H](CCCNC(=N)N)NC(=O)[C@H](CCC(N)=O)NC(=O)[C@H](CC(C)C)NC(=O)[C@H](CC(N)=O)NC(=O)[C@H](Cc2c[nH]c3ccccc23)NC(=O)[C@@H]2CCCN2C(=O)[C@H](CC(C)C)NC(=O)[C@H](CCCNC(=N)N)NC1=O
B11: Compound 64 (Ac-DCLWNLKRIGSQCEY-NH2) (peptide)
peptide: Ac-DCLWNLKRIGSQCEY-NH2
modifications: disulfide 2-13
SMILES: CC[C@H](C)[C@@H]1NC(=O)[C@H](CCCNC(=N)N)NC(=O)[C@H](CCCCN)NC(=O)[C@H](CC(C)C)NC(=O)[C@H](CC(N)=O)NC(=O)[C@H](Cc2c[nH]c3ccccc23)NC(=O)[C@H](CC(C)C)NC(=O)[C@@H](NC(=O)[C@H](CC(=O)O)NC(C)=O)CSSC[C@@H](C(=O)N[C@@H](CCC(=O)O)C(=O)N[C@@H](Cc2ccc(O)cc2)C(N)=O)NC(=O)[C@H](CCC(N)=O)NC(=O)[C@H](CO)NC(=O)CNC1=O
B12: Compound 36 (Ac-SG-CFIPWNLQ(Cit)IGLPC-NH2) (peptide)
peptide: Ac-SGCFIPWNLQ[Cit]IGLPC-NH2
modifications: disulfide 3-16
SMILES: CC[C@H](C)[C@@H]1NC(=O)[C@H](CCCNC(N)=O)NC(=O)[C@H](CCC(N)=O)NC(=O)[C@H](CC(C)C)NC(=O)[C@H](CC(N)=O)NC(=O)[C@H](Cc2c[nH]c3ccccc23)NC(=O)[C@@H]2CCCN2C(=O)[C@H]([C@@H](C)CC)NC(=O)[C@H](Cc2ccccc2)NC(=O)[C@@H](NC(=O)CNC(=O)[C@H](CO)NC(C)=O)CSSC[C@@H](C(N)=O)NC(=O)[C@@H]2CCCN2C(=O)[C@H](CC(C)C)NC(=O)CNC1=O
B13: Compound 106 (Ac-CRLPwNLQRIGLPC-NH2) (peptide)
peptide: Ac-CRLP[dW]NLQRIGLPC-NH2
modifications: disulfide 1-14
SMILES: CC[C@H](C)[C@@H]1NC(=O)[C@H](CCCNC(=N)N)NC(=O)[C@H](CCC(N)=O)NC(=O)[C@H](CC(C)C)NC(=O)[C@H](CC(N)=O)NC(=O)[C@@H](Cc2c[nH]c3ccccc23)NC(=O)[C@@H]2CCCN2C(=O)[C@H](CC(C)C)NC(=O)[C@H](CCCNC(=N)N)NC(=O)[C@@H](NC(C)=O)CSSC[C@@H](C(N)=O)NC(=O)[C@@H]2CCCN2C(=O)[C@H](CC(C)C)NC(=O)CNC1=O
B14: Compound 115 (Ac-CRLPWNLQRI-(Ape)-C-NH2) (peptide)
peptide: Ac-CRLPWNLQRI[Ava]C-NH2
modifications: disulfide 1-12
SMILES: CC[C@H](C)[C@@H]1NC(=O)[C@H](CCCNC(=N)N)NC(=O)[C@H](CCC(N)=O)NC(=O)[C@H](CC(C)C)NC(=O)[C@H](CC(N)=O)NC(=O)[C@H](Cc2c[nH]c3ccccc23)NC(=O)[C@@H]2CCCN2C(=O)[C@H](CC(C)C)NC(=O)[C@H](CCCNC(=N)N)NC(=O)[C@@H](NC(C)=O)CSSC[C@@H](C(N)=O)NC(=O)CCCCNC1=O
B15: Compound 21 (Ac-CWNLKRIGSQGC-NH2) (peptide)
peptide: Ac-CWNLKRIGSQGC-NH2
modifications: disulfide 1-12
SMILES: CC[C@H](C)[C@@H]1NC(=O)[C@H](CCCNC(=N)N)NC(=O)[C@H](CCCCN)NC(=O)[C@H](CC(C)C)NC(=O)[C@H](CC(N)=O)NC(=O)[C@H](Cc2c[nH]c3ccccc23)NC(=O)[C@@H](NC(C)=O)CSSC[C@@H](C(N)=O)NC(=O)CNC(=O)[C@H](CCC(N)=O)NC(=O)[C@H](CO)NC(=O)CNC1=O
B16: Compound 107 (Ac-CRLpWNLQRIGLPC-NH2) (peptide)
peptide: Ac-CRL[dP]WNLQRIGLPC-NH2
modifications: disulfide 1-14
SMILES: CC[C@H](C)[C@@H]1NC(=O)[C@H](CCCNC(=N)N)NC(=O)[C@H](CCC(N)=O)NC(=O)[C@H](CC(C)C)NC(=O)[C@H](CC(N)=O)NC(=O)[C@H](Cc2c[nH]c3ccccc23)NC(=O)[C@H]2CCCN2C(=O)[C@H](CC(C)C)NC(=O)[C@H](CCCNC(=N)N)NC(=O)[C@@H](NC(C)=O)CSSC[C@@H](C(N)=O)NC(=O)[C@@H]2CCCN2C(=O)[C@H](CC(C)C)NC(=O)CNC1=O

How the values were obtained:
[1] = biological target: T1, His-tagged, full-length PCSK9 (human, UniProt Q8NBP7 31-692); assay: TR-FRET competition (PCSK9/EGF(A) assay); competitor EGF(A)-Fc;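 note: proximity signal from anti-His APC on PCSK9 paired with anti-Fc europium on the Fc ligand, read as normalized TR-FRET ratio across compound dilutions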
T1 construct: secreted PCSK9 is autocatalytically cleaved into prodomain and catalytic domain + CRD (from S153), which stay associated; also called His-PCSK9; proprotein convertase subtilisin/kexin type 9; not shown: His tag

His-tagged PCSK9Δhelix = biological target: T2, His-tagged PCSK9Δhelix (human, UniProt Q8NBP7 31-152; Q8NBP7 168-692); assay: TR-FRET competition (PCSK9Δhelix/Ab20 assay); competitor Ab20
T2 construct: Human PCSK9 M1-Q692 with an engineered TEV site, cut by TEV protease; new N-terminus of the catalytic domain is S-A168; also called His-PCSK9Δhelix; not shown: His tag
T2 sequence (Q8NBP7 31-152, stated change not applied, chain 1 of 2): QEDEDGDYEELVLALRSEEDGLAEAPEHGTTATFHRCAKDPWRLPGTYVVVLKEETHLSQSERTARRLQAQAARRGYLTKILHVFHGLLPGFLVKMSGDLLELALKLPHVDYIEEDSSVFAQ
T2 sequence (Q8NBP7 other isoform, or with tags, fused parts or gaps mutant, chain 2 of 2): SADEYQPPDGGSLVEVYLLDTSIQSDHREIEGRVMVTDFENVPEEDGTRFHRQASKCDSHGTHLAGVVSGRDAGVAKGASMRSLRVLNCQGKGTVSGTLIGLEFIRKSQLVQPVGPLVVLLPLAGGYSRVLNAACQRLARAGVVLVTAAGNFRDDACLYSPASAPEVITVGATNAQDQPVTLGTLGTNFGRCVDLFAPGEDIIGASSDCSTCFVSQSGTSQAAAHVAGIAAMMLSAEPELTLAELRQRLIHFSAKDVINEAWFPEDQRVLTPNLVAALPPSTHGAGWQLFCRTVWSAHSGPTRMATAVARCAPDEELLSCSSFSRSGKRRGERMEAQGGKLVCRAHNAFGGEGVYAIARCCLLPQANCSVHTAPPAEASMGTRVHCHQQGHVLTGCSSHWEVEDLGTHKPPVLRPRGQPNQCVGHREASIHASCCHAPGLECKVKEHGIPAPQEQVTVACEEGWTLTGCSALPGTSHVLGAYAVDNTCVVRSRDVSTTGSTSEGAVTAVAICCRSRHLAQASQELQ

T1 sequence (Q8NBP7 31-692 limits assumed): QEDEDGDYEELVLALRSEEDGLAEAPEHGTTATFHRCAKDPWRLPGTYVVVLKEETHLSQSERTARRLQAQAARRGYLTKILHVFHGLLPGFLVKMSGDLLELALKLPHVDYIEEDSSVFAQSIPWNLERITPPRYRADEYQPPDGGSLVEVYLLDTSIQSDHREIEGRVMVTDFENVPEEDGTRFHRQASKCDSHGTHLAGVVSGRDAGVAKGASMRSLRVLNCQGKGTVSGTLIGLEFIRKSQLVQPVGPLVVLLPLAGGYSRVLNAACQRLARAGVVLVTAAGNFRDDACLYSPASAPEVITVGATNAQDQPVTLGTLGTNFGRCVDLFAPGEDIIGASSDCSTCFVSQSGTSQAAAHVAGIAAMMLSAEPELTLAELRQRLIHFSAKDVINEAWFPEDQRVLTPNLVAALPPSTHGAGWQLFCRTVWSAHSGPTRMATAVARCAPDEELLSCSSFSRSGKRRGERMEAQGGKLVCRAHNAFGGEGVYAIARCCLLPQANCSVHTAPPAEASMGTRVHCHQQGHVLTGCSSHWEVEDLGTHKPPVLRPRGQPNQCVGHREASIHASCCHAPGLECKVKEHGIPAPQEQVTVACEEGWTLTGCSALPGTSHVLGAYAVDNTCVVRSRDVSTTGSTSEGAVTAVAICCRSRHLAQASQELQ

Binder	IC50 [1]	IC50 (His-tagged PCSK9Δhelix) [µM]
B1	> 50 µM	1.9
B2	> 50 µM	
Ac-SGCRLPWNLQRIGLPC-NH2 (disulfide 3-16) [Compound 30 (Ac-SG-CRLPWNLQRIGLPC-NH2)]	> 50 µM	0.95
B3	> 50 µM	0.97
B4	> 50 µM	
B5	> 50 µM	
B6	> 50 µM	2.4
B7	> 50 µM	
B8	42 µM and > 50 µM	
B9	> 50 µM	
B10	> 50 µM	
B11	> 50 µM	
B12	> 50 µM	
B13	> 50 µM	
B14	> 50 µM	
B15	> 50 µM	
B16	> 50 µM	
